System: peptide library, one residue held at a place counted from the S/T acceptor
Assay: relative phosphorylation of the sub-library (ratio to the mean residue at this position); higher = residue favoured
How it was run: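 Relative sub-library phosphorylation, a ratio to the mean residue at that position, was obtained by phosphorimaging and densitometry of spots on streptavidin membranes. Before capture, purified recombinant kinases were incubated for 90 min under kinase-specific conditions with 50 μM biotinylated degenerate peptide sub-libraries and 50 μM ATP spiked with γ-32P-ATP. Each sub-library fixed one residue at one position around a central Ser/Thr.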

Sequence of UHMK1, construct: Full length, rat (Q63285 whole entry, looked up): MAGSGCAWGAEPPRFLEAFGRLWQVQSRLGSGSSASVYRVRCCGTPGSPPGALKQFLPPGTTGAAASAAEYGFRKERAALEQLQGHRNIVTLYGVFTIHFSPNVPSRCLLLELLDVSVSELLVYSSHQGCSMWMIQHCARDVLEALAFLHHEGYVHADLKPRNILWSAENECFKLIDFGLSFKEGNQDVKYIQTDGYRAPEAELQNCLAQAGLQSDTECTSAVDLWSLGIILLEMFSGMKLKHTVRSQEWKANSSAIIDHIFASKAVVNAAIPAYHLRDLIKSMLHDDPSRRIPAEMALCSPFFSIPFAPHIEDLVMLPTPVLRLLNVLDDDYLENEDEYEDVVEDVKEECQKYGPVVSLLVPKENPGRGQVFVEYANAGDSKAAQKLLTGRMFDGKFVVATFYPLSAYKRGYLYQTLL
Sequence of NEK2, construct: Full length, human (P51955 whole entry, looked up): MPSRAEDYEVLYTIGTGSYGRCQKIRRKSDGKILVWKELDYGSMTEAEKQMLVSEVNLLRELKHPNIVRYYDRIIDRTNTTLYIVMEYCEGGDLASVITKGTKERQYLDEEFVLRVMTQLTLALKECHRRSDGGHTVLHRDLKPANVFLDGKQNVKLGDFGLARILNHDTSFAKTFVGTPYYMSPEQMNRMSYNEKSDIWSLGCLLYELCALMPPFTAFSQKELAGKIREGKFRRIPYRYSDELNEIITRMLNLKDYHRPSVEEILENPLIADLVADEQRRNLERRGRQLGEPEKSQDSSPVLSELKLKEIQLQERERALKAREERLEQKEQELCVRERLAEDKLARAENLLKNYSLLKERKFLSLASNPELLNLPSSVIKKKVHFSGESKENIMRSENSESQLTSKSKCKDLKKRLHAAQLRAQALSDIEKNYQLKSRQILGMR

UHMK1, construct: Full length, rat (from UniProt Q63285)
relative phosphorylation
Details | at +1 | at +2 | at +3 | at +4 | at -1 | at -2 | at -3 | at -4 | at -5
A fixed | 0.707 | 1.1 | 1.58 | 1.14 | 1.16 | 1.12 | 0.872 | 0.961 | 0.981
D fixed | 0.246 | 0.442 | 0.33 | 0.594 | 1.67 | 3.17 | 3.13 | 1.43 | 1.11
E fixed | 0.266 | 0.515 | 0.397 | 1.54 | 0.818 | 1.86 | 2.01 | 1.14 | 1.02
F fixed | 0.343 | 1.09 | 1.12 | 0.824 | 0.666 | 0.678 | 0.626 | 0.742 | 0.715
G fixed | 0.86 | 1.08 | 0.906 | 0.915 | 1.54 | 1.22 | 1.11 | 1.02 | 0.994
H fixed | 0.349 | 0.936 | 0.99 | 0.78 | 0.872 | 0.714 | 0.822 | 0.872 | 1.45
I fixed | 0.665 | 1.18 | 0.77 | 1.36 | 0.636 | 0.663 | 0.704 | 0.917 | 0.931
K fixed | 0.437 | 1.07 | 0.477 | 0.761 | 0.939 | 0.636 | 0.625 | 1.15 | 1.64
L fixed | 0.363 | 1.02 | 0.872 | 0.86 | 0.808 | 0.677 | 0.672 | 0.95 | 1.22
M fixed | 0.362 | 0.76 | 0.601 | 0.847 | 0.73 | 0.599 | 0.647 | 0.703 | 0.748
N fixed | 0.299 | 0.664 | 0.402 | 0.588 | 1.36 | 0.945 | 1.09 | 1.28 | 1.18
P fixed | 10.2 | 2.02 | 4.75 | 1.07 | 1.9 | 1.37 | 1.17 | 1.16 | 0.952
Q fixed | 0.321 | 0.729 | 0.447 | 1.46 | 0.957 | 0.693 | 0.801 | 0.769 | 0.669
R fixed | 0.388 | 0.958 | 0.829 | 0.681 | 0.81 | 0.592 | 0.674 | 0.677 | 0.749
V fixed | 0.475 | 1.37 | 0.887 | 1.89 | 0.763 | 0.786 | 0.69 | 0.734 | 0.758
W fixed | 0.362 | 0.831 | 0.732 | 0.792 | 0.681 | 0.631 | 0.665 | 1.79 | 1.13
Y fixed | 0.337 | 1.25 | 0.91 | 0.891 | 0.687 | 0.642 | 0.685 | 0.712 | 0.749
pThr fixed | 0.306 | 0.654 | 0.572 | 0.747 | 1.2 | 5.01 | 2.73 | 1.9 | 2.82
pTyr fixed | 0.357 | 0.536 | 0.505 | 1.06 | 0.702 | 2.41 | 2.11 | 1.36 | 0.883

NEK2, construct: Full length, human (from UniProt P51955)
relative phosphorylation
Details | at +1 | at +2 | at +3 | at +4 | at -1 | at -2 | at -3 | at -4 | at -5
A fixed | 0.655 | 1.03 | 0.897 | 0.958 | 1.25 | 1.5 | 1.09 | 1.06 | 1.3
D fixed | 0.189 | 0.318 | 0.782 | 0.806 | 0.644 | 0.552 | 0.307 | 0.772 | 0.938
E fixed | 0.203 | 0.195 | 0.916 | 0.811 | 0.81 | 0.438 | 0.301 | 0.73 | 0.694
F fixed | 1.19 | 0.835 | 0.878 | 0.906 | 0.783 | 1.2 | 2.37 | 1.2 | 1.3
G fixed | 0.656 | 0.834 | 1.06 | 1.12 | 0.959 | 1.29 | 1.23 | 1.29 | 1.14
H fixed | 1.03 | 1.43 | 1.08 | 1.04 | 1.03 | 1.16 | 1.07 | 1.11 | 1
I fixed | 1.5 | 0.624 | 0.864 | 0.775 | 0.561 | 0.636 | 0.466 | 0.818 | 0.767
K fixed | 0.846 | 1.69 | 1.18 | 1.4 | 1.53 | 1.42 | 0.638 | 1.07 | 1.19
L fixed | 1.79 | 0.638 | 1.06 | 0.949 | 0.917 | 0.799 | 1.89 | 1.04 | 0.828
M fixed | 2.1 | 0.873 | 0.899 | 0.875 | 1.4 | 1.11 | 1.77 | 0.964 | 0.862
N fixed | 0.85 | 0.888 | 1.02 | 0.964 | 1.04 | 0.989 | 0.733 | 0.931 | 0.884
P fixed | 0.151 | 0.771 | 1.08 | 1.14 | 0.23 | 0.405 | 0.965 | 0.963 | 1.04
Q fixed | 1.26 | 0.696 | 0.874 | 1.06 | 1.21 | 0.852 | 0.661 | 0.881 | 0.81
R fixed | 1.26 | 3.71 | 1.5 | 1.45 | 1.98 | 1.75 | 0.77 | 0.902 | 1.18
V fixed | 1.18 | 0.71 | 0.875 | 0.745 | 0.743 | 0.65 | 0.48 | 0.828 | 0.934
W fixed | 0.983 | 0.748 | 0.916 | 1.14 | 0.85 | 1.06 | 1.11 | 1.44 | 1.1
Y fixed | 1.17 | 1.01 | 1.13 | 0.874 | 1.08 | 1.19 | 1.15 | 1.01 | 1.03
pThr fixed | 0.425 | 0.383 | 0.557 | 0.688 | 0.278 | 0.449 | 0.545 | 0.747 | 0.658
pTyr fixed | 0.547 | 0.275 | 0.758 | 0.62 | 0.697 | 0.525 | 0.752 | 0.642 | 0.66
